Test in all cases: native MS
The target in series [1] is T1, SsoSSB WT (Saccharolobus solfataricus DSM 1617 …, UniProt Q97W73 1-148).
T1 sequence: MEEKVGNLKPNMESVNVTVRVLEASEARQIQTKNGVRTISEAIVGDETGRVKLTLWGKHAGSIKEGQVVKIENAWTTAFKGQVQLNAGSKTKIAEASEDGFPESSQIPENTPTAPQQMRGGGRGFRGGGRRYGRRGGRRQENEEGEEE

Series [2] concerns the target T1, SsoSSB WT. The source holds these as a separate data set.
For series [3], the target named is T1, SsoSSB WT. The source holds these as a separate data set.
Series [4] concerns the target T1, SsoSSB WT. The source holds these as a separate data set.

Like-named read-outs stand apart in the source and are kept apart here.

Consider two molecules from publication PMC13047697.

Turning to TTTTTTTTTTTTTTT (ssDNA) [T15], the Kd with SsoSSB WT [1] was found to be 2080 nM; in the series with SsoSSB WT [2], 1320 nM; with SsoSSB WT [3] it was 1240 nM; with SsoSSB WT [4] it was 1940 nM.

On to TTTTTTTTTTTTTTTTTTTTTTTTTTTTTT (ssDNA) [T30], for which the Kd in the series with SsoSSB WT [1] stood at 209 nM; with SsoSSB WT [2], 266 nM; in the series with SsoSSB WT [3], 253 nM; with SsoSSB WT [4] it was 197 nM.

Broadly, the Kd is the constant that tells how readily two partners part at equilibrium. High values mean a looser complex, low ones a tighter complex.
